Reference: US20160347804A1 (IPIERIAN, published 2016)

Tests used:
eTau4 [1] = target: T1, eTau4 (human, UniProt P10636 2-124); experiment: direct binding ELISA, antibody titrated on eTau4, OD-450 nm
T1 construct: Recombinant eTau fragment; also called recombinant eTau4

[2] = target: full-length recombinant tau (0N4R) (UniProt P10636 1-383); experiment: direct binding ELISA, antibody titrated on rTau383, OD-450 nm
eTau1 = target: T2, eTau1 (human, UniProt P10636 2-547); experiment: direct binding assay, purified mAb, recombinant eTau fragment
T2 construct: also called recombinant eTau1 fragment; eTau 2-172
T2 sequence (P10636 other isoform, or with tags, fused parts or gaps limits assumed): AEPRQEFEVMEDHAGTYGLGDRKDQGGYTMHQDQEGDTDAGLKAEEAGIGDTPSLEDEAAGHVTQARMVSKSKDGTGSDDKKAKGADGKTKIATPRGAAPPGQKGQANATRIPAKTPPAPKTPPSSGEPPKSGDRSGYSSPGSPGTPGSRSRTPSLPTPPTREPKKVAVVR

eTau2 = target: T3, eTau2 (human, UniProt P10636 2-526); experiment: as above
T3 construct: Recombinant eTau fragment; also called recombinant eTau2; reTau2
T3 sequence (P10636 other isoform, or with tags, fused parts or gaps limits assumed): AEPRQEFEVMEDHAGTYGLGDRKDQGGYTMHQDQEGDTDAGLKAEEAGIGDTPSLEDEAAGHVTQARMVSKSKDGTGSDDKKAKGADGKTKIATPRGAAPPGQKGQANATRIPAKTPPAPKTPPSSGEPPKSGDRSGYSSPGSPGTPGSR

eTau3 = target: T4, eTau3 (human, UniProt P10636 2-497); experiment: as above
T4 construct: Recombinant eTau fragment; also called recombinant eTau3; reTau3
T4 sequence (P10636 other isoform, or with tags, fused parts or gaps limits assumed): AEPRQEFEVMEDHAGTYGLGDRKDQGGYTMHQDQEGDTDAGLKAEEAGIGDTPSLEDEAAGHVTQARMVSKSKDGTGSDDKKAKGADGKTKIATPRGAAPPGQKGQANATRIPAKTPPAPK

eTau4 [3] = target: T1, eTau4; experiment: as above
[4] = target: T5, full-length recombinant tau (0N4R) (UniProt P10636-6 1-383); experiment: direct binding ELISA-type assay, purified mAb, full-length recombinant tau 0N4R
T5 construct: The screening step used biotin-labeled full-length tau; also called rTau383
T5 sequence (P10636 other isoform, or with tags, fused parts or gaps limits assumed): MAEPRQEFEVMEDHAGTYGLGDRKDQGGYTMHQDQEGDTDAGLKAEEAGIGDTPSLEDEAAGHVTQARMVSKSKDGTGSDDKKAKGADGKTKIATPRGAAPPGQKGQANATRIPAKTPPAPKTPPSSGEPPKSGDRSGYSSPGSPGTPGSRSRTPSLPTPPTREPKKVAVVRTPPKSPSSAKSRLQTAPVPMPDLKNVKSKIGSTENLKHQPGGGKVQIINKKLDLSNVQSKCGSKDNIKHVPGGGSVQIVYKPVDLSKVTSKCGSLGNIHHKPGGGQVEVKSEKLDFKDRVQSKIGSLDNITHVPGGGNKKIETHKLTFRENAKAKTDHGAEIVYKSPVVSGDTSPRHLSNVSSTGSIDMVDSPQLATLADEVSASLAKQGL

[5] = target: T5, full-length recombinant tau (0N4R); experiment: direct binding ELISA, antibody titrated on rTau383, OD-450 nm

T1 sequence (P10636 other isoform, or with tags, fused parts or gaps limits assumed): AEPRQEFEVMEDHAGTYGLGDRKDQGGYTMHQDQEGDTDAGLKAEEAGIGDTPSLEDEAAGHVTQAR

Row | Binder | EC50 (read off the curve) (eTau4 [1]) | EC50 (read off the curve) [2] | Kd (eTau1) | Kd (eTau2) | Kd (eTau3) | binding result (eTau4 [3]) | Kd [4] | binding result (eTau2) | binding result (eTau3) | binding result (eTau1) | Kd (eTau4 [3]) | binding result [5]
1 | 7298-M1 (antibody, IgG2a, V domains shown, also called anti-Tau mAb 7298-M1) VH: EVQLEESGGGLVQPGGSLSLSCAASGFTFTDYYMSWVRQPPGKALEWVALNRNKTKGYTTEYSASVKGRFTISRDNSQSILYLQMNALRAEDSATYYCARGMDYWGQGTSVTVSS VL: DIVLTQSPTSLAVSLGQRATISCRASKSVSTSDYSYMHWYQQKPGQPPKLLIYLASNLESGVPARFSGSGSGTDFTLNIHPVEEEDAATYYCQHSRELPFTFGGGTKLEIKR | – | – | 3 nM | 1 nM | 0.1 nM | no binding | 6.68 nM | – | – | – | – | –
2 | 7295-M6 (antibody, V domains shown, also called anti-Tau mAb 7295-M6) VH: EVQLEESGAELVRSGASVTLSCTASGFNIKDYYIHWVKQRPEQGLEWIGWIDPENGDTEYAPKFQGKATMTADTSSNTAYLQLSSLTSEDTAVYYCNGAPGYWGPGTTLTVSS VL: DIVLTQTPLSLPVSLGDPASISCRSSQTIVHSNGNTYLEWYLQKPGQSPKLLIYKVSNRFSGVPDRFSGSGSGTDFTLKISRVEAEDLGVYYCFQGSHVPFTFGSGTKLEIKR | – | – | 0.0528 nM | – | – | no binding | 0.117 nM | no binding | no binding | – | – | –
3 | 7295-M8 (antibody, IgG2b, V domains shown, also called anti-Tau mAb 7295-M8) VH: EVQLEESGAELVRSGASVTLSCTASGFNIKDYYIHWVKQRPEQGLEWIGWIDPENGDTEYAPKFQGKATMTADTSSNTAYLQLSSLTSEDTAVYYCNGAPGYWGPGTTLTVSS VL: DIVLTQTPLSLPVSLGDPASISCRSSQTIVHSNGNTYLEWYLQKPGQSPKLLIYKVSNRFSGVPDRFSGSGSGTDFTLKISRVEAEDLGVYYCFQGSHVPFTFGSGTKLEIKR | – | – | 0.044 nM | – | – | no binding | 0.08 nM | no binding | no binding | – | – | –
4 | 7299-M9 (antibody, IgG1, V domains shown) VH: EVKLEQSGAELVKPGASVKLSCKASGYTFTNYWINWVKQRPGQGLEWIGNIYPGSTRANYNEKFKSKATLTVDTSSSTAYMQVSSLTSDDSAVYYCTRTHSIWGQGTQVTVSA VL: DIVITQSPLSLSVTIGQPASISCKSSQSLLYSDGKTYLNWLQQRPGQSPKRLVYQVSKLDPGIPDRFSGSGSETDFTLKLSRVEAEDLGVYYCLQGTYYPHTFGGGTKLEIKR | – | – | 0.6 nM | 0.7 nM | 1 nM | – | 0.277 nM | – | – | – | 0.6 nM | –

Continued, in another order:

Row | EC50 (read off the curve) (eTau4 [1]) | EC50 (read off the curve) [2] | Kd (eTau1) | Kd (eTau2) | Kd (eTau3) | binding result (eTau4 [3]) | Kd [4] | binding result (eTau2) | binding result (eTau3) | binding result (eTau1) | Kd (eTau4 [3]) | Binder | binding result [5]
5 | ~0.1 nM | ~0.07 nM | – | – | – | – | – | – | – | – | – | IPN002 (antibody, V domains shown) VH: EVHLVESGGALVKPGGSLKLSCAASGFSFSKYGMSWVRQTPDKRLEWVATISSSGSRTYYPDSVKGQFTISRDNAKNTLYLQMSSLKSEDTAMYYCSISWDGAMDYWGQGTSVTVSS VL: DVLMTQTPLSLPVSLGDQASISCKSSQSIVHSNGNTYLEWYLQKPGQSPKLLVYKVSNRFSGVPDRFSGSGSGTDFTLKISRVEAEDLGTYYCFQGSLVPWAFGGGTKLEIK | –
6 | – | – | 2 nM | 0.7 nM | 0.08 nM | no binding | 4.41 nM | – | – | – | – | 7298-M2 (antibody, IgG2a, V domains shown, also called anti-Tau mAb 7298-M2) VH: EVQLEESGGGLVKPGGSLKLSCAASGFTFSTYPMSWVRQTPEKRLEWVASISNGGSTYYPDTVKGRFTISRDNARNILYLQMSSLRSEDTAMYYCARGRDYHFDFWGQGTTLTVSS VL: DIVLTQSPTSLAVSLGQRATISCRASKSVSTSDYSYMHWYQQKPGQPPKLLIYLASNLESGVPARFSGSGSGTDFTLNIHPVEEEDAATYYCQHSRELPFTFGGGTKLEIKR | –
7 | ~0.03 nM | – | – | – | – | – | – | no binding | no binding | no binding | 0.8 nM | 7299-M2 (antibody, IgG1, V domains shown) VH: QVQLEESGAELVKPGASVKLSCKASGYTFTNYWINWVKQRPGQGLEWIGNIYPGSTRANYNEKFKSKATLTVDTSSSTAYMQVSSLTSDDSAVYYCTRTHSIWGQGTQVTVSA VL: DIVLTQTPLTLSVTIGQPASISCKSSQSLLYSDGKTFLNWLLQSPGQSPRLLIYLVSKLQSGVPDRFSGSGSGTDFTLKISRVEAEDLGVYYCVQGTHFPYTFGGGTKLEIKR | no binding (tested: log -8.2 M (about 6e-9 M))
8 | – | – | 0.1 nM | 0.09 nM | – | no binding | 2.21 nM | – | no binding | – | – | 7297-2M1 (antibody, IgG1, V domains shown, also called anti-Tau mAb 7297-2M1) VH: EVQLEQSGAELVKPGASVKLSCKASGYTFISNWMHWVKQRPGQGLEWIGNIDPSDSETHYNQKFKDKATLTVDKSSSTAYMQLSSLTSEDSAVYYCARRDRDGYYFDYWGQGTTLTVSS VL: DIVLTQTPSSLSASLGGKVTITCKASQDINKYIAWYQHKPGKGPRLLIHYTSTLQSGIPSRFSGSGSGRDYSFSISNLEPEDIATYYCLQYDHLLTFGAGTKLELKR | –
9 | – | – | 0.6 nM | 1 nM | 0.6 nM | – | 0.511 nM | – | – | – | 0.5 nM | 7299-M5 (antibody, IgG2b, V domains shown) VH: EVKLEESGAELVKPGASVKLSCKASGYTFISNWMHWVKQRPGQGLEWIGNIDPSDSETHYNQKFKDKATLTVDKSSSTAYMQLSSLTSEDSAVYYCARRDRDGYYFDYWGQGTTLTVSS VL: DIVMTQSPLSLSVTIGQPASISCKSSQSLLYSDGKTYLNWLQQRPGQSPKRLVYQVSKLDPGIPDRFSGSGSETDFTLKLSRVEAEDLGVYYCLQGTYYPHTFGGGTKLEIKR | –
